# Test results reported in the supplement of paper PMC9233669.
# This sample holds only a part of the variants without activity.
# Tests used:
# biotinyl-Val-oxazolone = assay: self-aminoacylation, catalytic enhancement (BVO) (fold over background); higher = more active; k-Seq, kA / k0A0; sequences stand for … in GGGAAUGGAUCCACAUCUACGAAUUC…UUCACUGCAGACUUGACGAAGCUG
# Summary of the method: (§1)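 The uncatalyzed rate is the low-activity peak of a bimodal Gaussian fit, and catalytic enhancement is median kA divided by it. The kA values came from pseudo-first-order fits, with 1000 bootstraps, of per-sequence fraction reacted measured by streptavidin capture, triplicate qPCR and Illumina sequencing. Mutagenized RNA pools with a 21-nt variable region (0.43 μM) were reacted with each biotinyl-aminoacyl-oxazolone at 2–1250 μM in 50 μL HEPES/NaCl/KCl/MgCl2/CaCl2 buffer with 5% acetonitrile, pH 6.9–7.0, for 90 minutes at room temperature.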
# biotinyl-Met-oxazolone = assay: self-aminoacylation, catalytic enhancement (BMO) (fold over background); higher = more active; k-Seq, kA / k0A0; sequences stand for … in GGGAAUGGAUCCACAUCUACGAAUUC…UUCACUGCAGACUUGACGAAGCUG
# Summary of the method: as §1
# biotinyl-Phe-oxazolone = assay: self-aminoacylation, catalytic enhancement (BFO) (fold over background); higher = more active; k-Seq, kA / k0A0; sequences stand for … in GGGAAUGGAUCCACAUCUACGAAUUC…UUCACUGCAGACUUGACGAAGCUG
# Summary of the method: as §1
# biotinyl-Leu-oxazolone = assay: self-aminoacylation, catalytic enhancement (BLO) (fold over background); higher = more active; k-Seq, kA / k0A0; sequences stand for … in GGGAAUGGAUCCACAUCUACGAAUUC…UUCACUGCAGACUUGACGAAGCUG
# Summary of the method: as §1
# biotinyl-Ile-oxazolone = assay: self-aminoacylation, catalytic enhancement (BIO) (fold over background); higher = more active; k-Seq, kA / k0A0; sequences stand for … in GGGAAUGGAUCCACAUCUACGAAUUC…UUCACUGCAGACUUGACGAAGCUG
# Summary of the method: as §1
# biotinyl-Trp-oxazolone = assay: self-aminoacylation, catalytic enhancement (BWO) (fold over background); higher = more active; k-Seq, kA / k0A0; sequences stand for … in GGGAAUGGAUCCACAUCUACGAAUUC…UUCACUGCAGACUUGACGAAGCUG
# Summary of the method: as §1
Sequence,self-aminoacylation (biotinyl-Val-oxazolone),self-aminoacylation (biotinyl-Met-oxazolone),self-aminoacylation (biotinyl-Phe-oxazolone),self-aminoacylation (biotinyl-Leu-oxazolone),self-aminoacylation (biotinyl-Ile-oxazolone),self-aminoacylation (biotinyl-Trp-oxazolone)
AUUCACCUAGGCCCUCGGGUG [Fam2.2 aminoacylation ribozyme variant],3.1,3.26,24.2,3.88,2.81,3.75
AAGGUUGCAAAUAGUCGCAAG [Fam3.1 aminoacylation ribozyme variant],1.08,1.02,1.44,1.2,1.41,1.66
AUUACCCUCGUCAUCGAGUGG [Fam2.1 aminoacylation ribozyme variant],0.932,1.31,0.728,1.46,0.948,0.389
GAGUCUGCUAAUAGUCGCAAG [Fam3.1 aminoacylation ribozyme variant],1.63,2.34,46.9,2.07,1.99,14
AUUGCCCUGGUCAACGAGUGA [Fam2.1 aminoacylation ribozyme variant],3.53,6.85,49.1,6.71,3.3,7.12
CCGCACUUCACGCAAUCGGUC [Fam1B.1 aminoacylation ribozyme variant],2.1,1.54,1.66,2.34,1.36,1.85
AUCCACCUCGGUCAUCGGGUG [Fam2.2 aminoacylation ribozyme variant],7,7.86,72.4,7.66,5.06,7.66
AUGACCCUGGGCAUCGAGUGA [Fam2.1 aminoacylation ribozyme variant],3.32,7.08,42.4,8.34,3.97,7.35
AUUCACCUAAGUCAACGGGUG [Fam2.2 aminoacylation ribozyme variant],2.43,3.57,28,4.67,2.58,3.21
AUUACCCUAGUCACCGAGUGA [Fam2.1 aminoacylation ribozyme variant],3.27,6.48,23.1,6.48,2.89,7.33
AAGUUUGCUAAUAGGCGCGAG [Fam3.1 aminoacylation ribozyme variant],0.9,0.819,1.2,0.954,1.16,1.42
CUACUUCAAACAAUCGUUCCG [Fam1A.1 aminoacylation ribozyme variant],0.66,0.516,0.562,0.786,0.724,0.587
UUAACCCUGGUCAUCGAGUGA [Fam2.1 aminoacylation ribozyme variant],5.9,11.7,20.2,12,5.63,11.5
AUUUCCCUGGUGAUCGAGUGA [Fam2.1 aminoacylation ribozyme variant],3.15,5.5,44.4,5.66,2.77,6.58
CGACACUUCAAGCAAUCGAUC [Fam1B.1 aminoacylation ribozyme variant],0.727,0.582,0.965,0.611,0.672,0.715
AUUACCGUGGUCAUCGAGUAA [Fam2.1 aminoacylation ribozyme variant],1.58,1.35,1.2,1.56,1.42,1.93
AUUCACCUAGCUCAUCCGGUG [Fam2.2 aminoacylation ribozyme variant],2.51,3.18,16.5,3.7,2.45,3.68
AUUACCCUGGUCACCGUGUGA [Fam2.1 aminoacylation ribozyme variant],2.06,3.88,21.1,3.95,1.98,5.51
CUACUUCAGACAAUCGGUCUU [Fam1A.1 aminoacylation ribozyme variant],0.961,0.904,1.11,0.919,0.967,0.663
AAGUUUGCGACUAGUCGCAAG [Fam3.1 aminoacylation ribozyme variant],1.34,1.73,2.33,1.34,1.78,1.67
GUUACCCUGGUCAUCGAGUGC [Fam2.1 aminoacylation ribozyme variant],4.94,12.9,33.8,13,4.28,9.64
CUACUUCUAACAGUCGGUCUG [Fam1A.1 aminoacylation ribozyme variant],0.597,0.672,0.402,0.611,0.521,0.349
AAGUUUGCUAAUGGUCGGAAG [Fam3.1 aminoacylation ribozyme variant],0.91,0.811,1.55,0.849,0.861,0.587
AUUACCCUCGUCAUCUAGUGA [Fam2.1 aminoacylation ribozyme variant],2.7,3.26,9.86,3.57,2.3,4.43
AUUACUCUGGUCAUCCAGUGA [Fam2.1 aminoacylation ribozyme variant],2.74,5.01,17.3,5.29,3.2,6.01
CUACUUCAAACAACCUGUCUG [Fam1A.1 aminoacylation ribozyme variant],0.736,0.52,0.494,0.589,0.74,0.325
